Laboratory results reported in US20150344570A1 (published 2015).

T1: FcγRIIa R (human, UniProt P12318 34-217)
T1 construct: extracellular domain; also called FcgRIIa R type; 2aR
T1 sequence (looked up): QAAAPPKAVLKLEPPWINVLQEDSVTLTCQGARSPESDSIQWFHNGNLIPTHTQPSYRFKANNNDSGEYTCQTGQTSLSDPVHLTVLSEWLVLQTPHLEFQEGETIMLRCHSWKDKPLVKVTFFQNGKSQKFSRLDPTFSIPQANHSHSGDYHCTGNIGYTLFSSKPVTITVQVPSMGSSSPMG

B1: GpH7-B3 variant G237_09D/GpL16-k0 (antibody, human IgG1, kappa)
heavy: not shown
light: DIVMTQSPLSLPVTPGEPASISCQASESLVHSNRNTYLHWYLQKPGQSPQLLIYKVSNRFSGVPDRFSGSGSGTDFTLKISRVEAEDVGVYYCSQNTHVPPTFGQGTKVEIERTVAAPSVFIFPPSDEQLKSGTASVVCLLNNFYPREAKVQWKVDNALQSGNSQESVTEQDSKDSTYSLSSTLTLSKADYEKHKVYACEVTHQGLSSPVTKSFNRGEC
notes: also called Ho Ab G237_09D
B2: GpH7-B3 variant G237_19Q/GpL16-k0 (antibody, human IgG1, kappa)
heavy: not shown
light: B1 light
notes: also called Ho Ab G237_19Q
B3: GpH7-B3 variant K334_20W/GpL16-k0 (antibody, human IgG1, kappa)
heavy: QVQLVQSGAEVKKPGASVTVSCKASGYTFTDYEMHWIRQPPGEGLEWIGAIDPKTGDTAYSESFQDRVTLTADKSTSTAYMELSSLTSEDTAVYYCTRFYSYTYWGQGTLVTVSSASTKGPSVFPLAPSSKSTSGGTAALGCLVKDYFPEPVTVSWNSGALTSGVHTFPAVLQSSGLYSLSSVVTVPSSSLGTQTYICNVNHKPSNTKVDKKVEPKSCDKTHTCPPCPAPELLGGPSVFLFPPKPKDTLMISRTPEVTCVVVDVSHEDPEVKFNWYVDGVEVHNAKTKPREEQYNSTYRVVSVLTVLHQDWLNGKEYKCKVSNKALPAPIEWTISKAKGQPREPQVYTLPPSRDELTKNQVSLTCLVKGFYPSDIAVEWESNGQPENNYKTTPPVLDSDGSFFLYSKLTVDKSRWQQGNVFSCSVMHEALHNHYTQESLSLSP
light: B1 light
notes: also called Ho Ab K334_20W
B4: GpH7-B3 variant N325_14T/GpL16-k0 (antibody, human IgG1, kappa)
heavy: not shown
light: B1 light
notes: also called Ho Ab N325_14T
B5: GpH7-B3 variant K334_05P/GpL16-k0 (antibody, human IgG1, kappa)
heavy: not shown
light: B1 light
notes: also called Ho Ab K334_05P
B6: GpH7-B3 variant G237_20W/GpL16-k0 (antibody, human IgG1, kappa)
heavy: not shown
light: B1 light
notes: also called Ho Ab G237_20W
B7: GpH7-B3 variant L235_20W/GpL16-k0 (antibody, human IgG1, kappa)
heavy: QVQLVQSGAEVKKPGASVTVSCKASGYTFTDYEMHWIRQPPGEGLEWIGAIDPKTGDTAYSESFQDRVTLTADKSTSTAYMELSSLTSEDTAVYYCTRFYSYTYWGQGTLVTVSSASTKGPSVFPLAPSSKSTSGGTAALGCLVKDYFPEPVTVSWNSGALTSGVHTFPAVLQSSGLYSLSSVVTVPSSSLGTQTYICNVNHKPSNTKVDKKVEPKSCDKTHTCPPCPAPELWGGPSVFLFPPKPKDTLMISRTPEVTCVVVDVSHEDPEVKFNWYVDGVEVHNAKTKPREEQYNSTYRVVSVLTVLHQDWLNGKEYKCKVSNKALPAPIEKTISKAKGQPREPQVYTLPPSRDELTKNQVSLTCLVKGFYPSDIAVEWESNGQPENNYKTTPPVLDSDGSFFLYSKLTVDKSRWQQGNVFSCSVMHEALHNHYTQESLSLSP
light: B1 light
notes: also called Ho Ab L235_20W
B8: GpH7-B3 variant K334_08L/GpL16-k0 (antibody, human IgG1, kappa)
heavy: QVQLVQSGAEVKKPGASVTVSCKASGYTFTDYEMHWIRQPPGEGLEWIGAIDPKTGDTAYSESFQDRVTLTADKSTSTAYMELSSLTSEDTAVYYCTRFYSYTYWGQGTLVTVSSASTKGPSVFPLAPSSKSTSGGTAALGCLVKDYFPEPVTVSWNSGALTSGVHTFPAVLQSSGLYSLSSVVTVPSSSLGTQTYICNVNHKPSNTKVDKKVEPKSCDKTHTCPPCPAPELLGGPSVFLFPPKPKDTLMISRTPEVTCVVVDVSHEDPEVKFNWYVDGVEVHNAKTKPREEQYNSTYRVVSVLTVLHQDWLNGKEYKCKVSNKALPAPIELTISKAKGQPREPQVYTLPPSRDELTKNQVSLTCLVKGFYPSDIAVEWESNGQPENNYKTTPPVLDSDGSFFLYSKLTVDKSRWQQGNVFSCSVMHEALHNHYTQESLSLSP
light: B1 light
notes: also called Ho Ab K334_08L
B9: GpH7-B3 variant H268_05P/GpL16-k0 (antibody, human IgG1, kappa)
heavy: not shown
light: B1 light
notes: also called Ho Ab H268_05P
B10: GpH7-B3 variant L328_02A/GpL16-k0 (antibody, human IgG1, kappa)
heavy: not shown
light: B1 light
notes: also called Ho Ab L328_02A
B11: GpH7-B3 variant I336_08L/GpL16-k0 (antibody, human IgG1, kappa)
heavy: not shown
light: B1 light
notes: also called Ho Ab I336_08L
B12: GpH7-B3 variant N325_10E/GpL16-k0 (antibody, human IgG1, kappa)
heavy: not shown
light: B1 light
notes: also called Ho Ab N325_10E
B13: GpH7-B3 variant H268_11K/GpL16-k0 (antibody, human IgG1, kappa)
heavy: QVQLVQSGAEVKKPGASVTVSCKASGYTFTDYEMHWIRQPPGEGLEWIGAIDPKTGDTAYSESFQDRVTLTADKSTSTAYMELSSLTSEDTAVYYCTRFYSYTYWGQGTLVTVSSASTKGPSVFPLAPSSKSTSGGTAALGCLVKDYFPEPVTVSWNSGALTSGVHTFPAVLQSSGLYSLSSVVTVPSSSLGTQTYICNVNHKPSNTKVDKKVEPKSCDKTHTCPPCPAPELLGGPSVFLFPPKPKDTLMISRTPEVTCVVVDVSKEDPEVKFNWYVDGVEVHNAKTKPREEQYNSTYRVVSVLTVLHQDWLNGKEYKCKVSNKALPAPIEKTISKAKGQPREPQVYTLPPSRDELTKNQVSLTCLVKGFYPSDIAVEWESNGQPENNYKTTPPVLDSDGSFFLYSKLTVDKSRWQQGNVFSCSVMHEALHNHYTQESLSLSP
light: B1 light
notes: also called Ho Ab H268_11K
B14: GpH7-B3 variant H268_01G/GpL16-k0 (antibody, human IgG1, kappa)
heavy: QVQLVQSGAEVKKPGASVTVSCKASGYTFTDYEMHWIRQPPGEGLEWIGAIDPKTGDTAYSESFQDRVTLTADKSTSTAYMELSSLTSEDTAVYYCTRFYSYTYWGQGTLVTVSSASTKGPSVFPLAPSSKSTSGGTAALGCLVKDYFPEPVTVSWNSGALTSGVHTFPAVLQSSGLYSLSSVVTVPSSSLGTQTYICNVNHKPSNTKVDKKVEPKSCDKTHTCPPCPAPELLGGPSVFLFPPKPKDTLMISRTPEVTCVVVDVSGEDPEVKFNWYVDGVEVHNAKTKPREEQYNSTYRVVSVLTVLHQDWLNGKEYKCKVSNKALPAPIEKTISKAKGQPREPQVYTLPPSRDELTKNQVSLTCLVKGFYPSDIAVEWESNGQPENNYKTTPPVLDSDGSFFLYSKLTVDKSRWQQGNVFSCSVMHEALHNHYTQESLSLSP
light: B1 light
notes: also called Ho Ab H268_01G
B15: GpH7-B3 variant G237_18N/GpL16-k0 (antibody, human IgG1, kappa)
heavy: not shown
light: B1 light
notes: also called Ho Ab G237_18N
B16: GpH7-B3 variant G237_10E/GpL16-k0 (antibody, human IgG1, kappa)
heavy: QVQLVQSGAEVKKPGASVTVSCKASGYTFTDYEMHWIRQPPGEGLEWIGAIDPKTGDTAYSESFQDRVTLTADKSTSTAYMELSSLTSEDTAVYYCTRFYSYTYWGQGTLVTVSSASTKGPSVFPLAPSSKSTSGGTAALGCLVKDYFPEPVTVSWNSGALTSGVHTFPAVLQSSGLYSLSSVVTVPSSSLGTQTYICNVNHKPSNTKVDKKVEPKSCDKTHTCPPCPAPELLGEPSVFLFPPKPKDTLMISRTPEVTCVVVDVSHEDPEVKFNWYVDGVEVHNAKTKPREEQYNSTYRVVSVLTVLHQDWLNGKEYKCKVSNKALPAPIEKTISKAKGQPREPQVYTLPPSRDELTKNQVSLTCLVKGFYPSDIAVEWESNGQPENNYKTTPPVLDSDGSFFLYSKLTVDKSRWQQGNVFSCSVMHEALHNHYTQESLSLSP
light: B1 light
notes: also called Ho Ab G237_10E
B17: GpH7-B3 variant N325_03V/GpL16-k0 (antibody, human IgG1, kappa)
heavy: not shown
light: B1 light
notes: also called Ho Ab N325_03V
B18: GpH7-B3 variant G237_13S/GpL16-k0 (antibody, human IgG1, kappa)
heavy: not shown
light: B1 light
notes: also called Ho Ab G237_13S
B19: GpH7-B3 variant L234_20W/GpL16-k0 (antibody, human IgG1, kappa)
heavy: not shown
light: B1 light
notes: also called Ho Ab L234_20W
B20: GpH7-B3 variant K334_19Q/GpL16-k0 (antibody, human IgG1, kappa)
heavy: not shown
light: B1 light
notes: also called Ho Ab K334_19Q
B21: GpH7-B3 variant H268_15Y/GpL16-k0 (antibody, human IgG1, kappa)
heavy: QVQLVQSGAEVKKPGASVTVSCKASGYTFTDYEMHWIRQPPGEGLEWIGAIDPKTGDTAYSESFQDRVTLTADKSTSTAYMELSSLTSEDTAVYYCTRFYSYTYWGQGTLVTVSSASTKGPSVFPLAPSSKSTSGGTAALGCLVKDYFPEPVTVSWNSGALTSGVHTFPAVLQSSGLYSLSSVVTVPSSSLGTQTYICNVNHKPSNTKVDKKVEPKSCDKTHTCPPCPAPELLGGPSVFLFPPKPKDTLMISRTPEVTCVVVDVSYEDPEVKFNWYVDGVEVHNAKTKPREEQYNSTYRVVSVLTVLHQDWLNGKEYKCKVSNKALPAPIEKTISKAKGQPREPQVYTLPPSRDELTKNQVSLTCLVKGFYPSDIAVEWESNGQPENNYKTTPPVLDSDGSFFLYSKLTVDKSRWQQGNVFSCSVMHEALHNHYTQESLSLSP
light: B1 light
notes: also called Ho Ab H268_15Y
B22: GpH7-B3 variant L234_04F/GpL16-k0 (antibody, human IgG1, kappa)
heavy: not shown
light: B1 light
notes: also called Ho Ab L234_04F
B23: GpH7-B3 variant K326_15Y/GpL16-k0 (antibody, human IgG1, kappa)
heavy: not shown
light: B1 light
notes: also called Ho Ab K326_15Y
B24: GpH7-B3 variant N325_08L/GpL16-k0 (antibody, human IgG1, kappa)
heavy: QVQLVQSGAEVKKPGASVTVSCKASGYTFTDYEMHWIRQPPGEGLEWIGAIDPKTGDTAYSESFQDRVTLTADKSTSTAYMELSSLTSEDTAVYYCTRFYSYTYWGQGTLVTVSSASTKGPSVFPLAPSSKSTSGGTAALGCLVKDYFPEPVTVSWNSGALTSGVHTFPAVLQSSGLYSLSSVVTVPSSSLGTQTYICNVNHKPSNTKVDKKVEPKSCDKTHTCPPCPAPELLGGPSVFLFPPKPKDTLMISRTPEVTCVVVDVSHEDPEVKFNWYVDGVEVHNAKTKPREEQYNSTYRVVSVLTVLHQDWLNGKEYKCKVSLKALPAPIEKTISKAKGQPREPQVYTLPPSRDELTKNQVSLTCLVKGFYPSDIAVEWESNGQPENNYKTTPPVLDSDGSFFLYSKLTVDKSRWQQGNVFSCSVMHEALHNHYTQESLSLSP
light: B1 light
notes: also called Ho Ab N325_08L
B25: GpH7-B3 variant K334_12R/GpL16-k0 (antibody, human IgG1, kappa)
heavy: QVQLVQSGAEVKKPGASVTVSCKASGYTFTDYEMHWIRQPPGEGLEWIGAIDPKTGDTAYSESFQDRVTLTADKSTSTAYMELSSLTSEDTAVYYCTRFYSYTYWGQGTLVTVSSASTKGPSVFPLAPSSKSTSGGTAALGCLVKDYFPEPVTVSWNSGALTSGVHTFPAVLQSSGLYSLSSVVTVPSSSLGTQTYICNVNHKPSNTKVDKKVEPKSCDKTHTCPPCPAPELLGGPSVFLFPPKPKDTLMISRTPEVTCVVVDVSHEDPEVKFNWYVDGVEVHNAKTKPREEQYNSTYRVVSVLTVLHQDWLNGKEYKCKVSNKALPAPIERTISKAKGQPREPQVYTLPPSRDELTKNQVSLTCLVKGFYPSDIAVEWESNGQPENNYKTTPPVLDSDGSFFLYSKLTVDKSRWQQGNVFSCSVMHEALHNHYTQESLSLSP
light: B1 light
notes: also called Ho Ab K334_12R
B26: GpH7-B3 variant L328_10E/GpL16-k0 (antibody, human IgG1, kappa)
heavy: not shown
light: B1 light
notes: also called Ho Ab L328_10E
B27: GpH7-B3 variant K326_08L/GpL16-k0 (antibody, human IgG1, kappa)
heavy: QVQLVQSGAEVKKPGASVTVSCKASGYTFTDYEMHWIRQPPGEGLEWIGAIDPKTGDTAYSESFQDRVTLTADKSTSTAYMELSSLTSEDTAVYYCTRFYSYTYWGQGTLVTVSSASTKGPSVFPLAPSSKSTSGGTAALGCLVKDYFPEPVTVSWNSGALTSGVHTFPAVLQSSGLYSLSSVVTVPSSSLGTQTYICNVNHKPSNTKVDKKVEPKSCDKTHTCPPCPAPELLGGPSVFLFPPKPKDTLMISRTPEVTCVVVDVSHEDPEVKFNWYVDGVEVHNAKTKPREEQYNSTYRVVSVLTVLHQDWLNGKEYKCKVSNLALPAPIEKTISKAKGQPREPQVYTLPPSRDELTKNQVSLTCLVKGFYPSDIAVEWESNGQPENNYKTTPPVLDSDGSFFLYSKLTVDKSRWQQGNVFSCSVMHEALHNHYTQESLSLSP
light: B1 light
notes: also called Ho Ab K326_08L
B28: GpH7-B3 variant K334_02A/GpL16-k0 (antibody, human IgG1, kappa)
heavy: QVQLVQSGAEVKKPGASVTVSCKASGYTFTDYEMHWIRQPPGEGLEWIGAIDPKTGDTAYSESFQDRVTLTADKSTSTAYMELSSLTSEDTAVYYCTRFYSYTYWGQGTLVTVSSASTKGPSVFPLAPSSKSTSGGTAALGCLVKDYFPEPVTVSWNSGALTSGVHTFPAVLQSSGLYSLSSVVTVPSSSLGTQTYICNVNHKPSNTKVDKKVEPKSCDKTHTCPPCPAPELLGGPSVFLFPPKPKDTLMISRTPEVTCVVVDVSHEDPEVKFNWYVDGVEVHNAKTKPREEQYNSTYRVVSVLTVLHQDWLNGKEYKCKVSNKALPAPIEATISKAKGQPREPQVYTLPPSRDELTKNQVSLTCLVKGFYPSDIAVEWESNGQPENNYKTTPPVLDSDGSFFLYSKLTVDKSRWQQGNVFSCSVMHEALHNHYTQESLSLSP
light: B1 light
notes: also called Ho Ab K334_02A

molecular target: T1, FcγRIIa R; assay: SPR (Biacore), captured antibody, FcγR as analyte; relative binding activity
Experimental: Analysis of interaction between objective antibody and the FcγR was carried out using Biacore T100 (GE Healthcare). HBS-EP+ (GE Healthcare) was used as the running buffer, and the measurement temperature was set to 25° C. Chips produced by immobilizing the antigen peptide by the amine coupling method to a Series S Sencor Chip CM5 (GE Healthcare), or alternatively, chips produced by allowing preliminarily biotinylated antigen peptides to interact with and immobilize onto a Series S Sensor Chip SA (certified) (GE Healthcare) were used. Antibodies of interest were captured onto an antigen peptide-immobilized chip, and allowed to interact to each FcγR diluted with running buffer. To regenerate and repeatedly use the chip, the antibodies captured on the chip were washed off by reacting 10 mM glycine-HCl, pH 1.5.

Ho/Con_2aR | Binder
73.1 % (GpH7-B3/GpL16-k0 = 100) | B1
14.3 % (GpH7-B3/GpL16-k0 = 100) | B2
96.4 % (GpH7-B3/GpL16-k0 = 100) | B3
60.2 % (GpH7-B3/GpL16-k0 = 100) | B4
102 % (GpH7-B3/GpL16-k0 = 100) | B5
107 % (GpH7-B3/GpL16-k0 = 100) | B6
114 % (GpH7-B3/GpL16-k0 = 100) | B7
105 % (GpH7-B3/GpL16-k0 = 100) | B8
95.9 % (GpH7-B3/GpL16-k0 = 100) | B9
97 % (GpH7-B3/GpL16-k0 = 100) | B10
105 % (GpH7-B3/GpL16-k0 = 100) | B11
49.9 % (GpH7-B3/GpL16-k0 = 100) | B12
93.4 % (GpH7-B3/GpL16-k0 = 100) | B13
122 % (GpH7-B3/GpL16-k0 = 100) | B14
73.6 % (GpH7-B3/GpL16-k0 = 100) | B15
22.5 % (GpH7-B3/GpL16-k0 = 100) | B16
37.8 % (GpH7-B3/GpL16-k0 = 100) | B17
44.4 % (GpH7-B3/GpL16-k0 = 100) | B18
53.8 % (GpH7-B3/GpL16-k0 = 100) | B19
108 % (GpH7-B3/GpL16-k0 = 100) | B20
106 % (GpH7-B3/GpL16-k0 = 100) | B21
43.3 % (GpH7-B3/GpL16-k0 = 100) | B22
134 % (GpH7-B3/GpL16-k0 = 100) | B23
95 % (GpH7-B3/GpL16-k0 = 100) | B24
110 % (GpH7-B3/GpL16-k0 = 100) | B25
48.1 % (GpH7-B3/GpL16-k0 = 100) | B26
131 % (GpH7-B3/GpL16-k0 = 100) | B27
100 % (GpH7-B3/GpL16-k0 = 100) | B28
